Laboratory results taken from patent US5972678A, “Animal 2-5A dependent RNases” (Cleveland Clinic Foundation, priority 1995, dated 1999).

B1: recombinant human 2-5A-dependent RNase: full-length human 2-5A-dependent RNase, amino acids 1-741 in Table I, produced in vitro in reticulocyte lysate (protein, UniProt Q05823 1-741, looked up)
chain: MESRDHNNPQEGPTSSSGRRAAVEDNHLLIKAVQNEDVDLVQQLLEGGANVNFQEEEGGWTPLHNAVQMSREDIVELLLRHGADPVLRKKNGATPFILAAIAGSVKLLKLFLSKGADVNECDFYGFTAFMEAAVYGKVKALKFLYKRGANVNLRRKTKEDQERLRKGGATALMDAAEKGHVEVLKILLDEMGADVNACDNMGRNALIHALLSSDDSDVEAITHLLLDHGADVNVRGERGKTPLILAVEKKHLGLVQRLLEQEHIEINDTDSDGKTALLLAVELKLKKIAELLCKRGASTDCGDLVMTARRNYDHSLVKVLLSHGAKEDFHPPAEDWKPQSSHWGAALKDLHRIYRPMIGKLKFFIDEKYKIADTSEGGIYLGFYEKQEVAVKTFCEGSPRAQREVSCLQSSRENSHLVTFYGSESHRGHLFVCVTLCEQTLEACLDVHRGEDVENEEDEFARNVLSSIFKAVQELHLSCGYTHQDLQPQNILIDSKKAAHLADFDKSIKWAGDPQEVKRDLEDLGRLVLYVVKKGSISFEDLKAQSNEEVVQLSPDEETKDLIHRLFHPGEHVRDCLSDLLGHPFFWTWESRYRTLRNVGNESDIKTRKSESEILRLLQPGPSEHSKSFDKWTTKINECVMKKMNKFYEKRGNFYQNTVGDLLKFIRNLGEHIDEEKHKKMKLKIGDPSLYFQKTFPDLVIYVYTKLQNTEYRKHFPQTHSPNKPQCDGAGGASGLASPGC
modifications: full-length

How the values were obtained:
2-5A-dependent RNase = conditions: cited from earlier work
poly(U) = assay: ribonuclease assay with 2-5A-cellulose, poly(U) substrate; format: biochemical
Method: (§1) FIG. 5B is reticulocyte lysate pretreated to remove endogeous 2-5A-dependent RNase and is incubated in the absence of added mRNA (.box-solid.), in the presence of human 2-5A-dependent RNase mRNA without inhibitor (.smallcircle., .quadrature.) or in the presence of both 2-5A-dependent RNase mRNA and cycloheximide (50 μg per ml (.circle-solid.). See Example. Subsequently, the recombinant 2-5A-dependent RNase (or controls) is adsorbed to 2-5A-cellulose and ribonuclease assays are performed after extensive washing of the matrix to reduce general nuclease activity. Radiolabeled substrate RNA was either poly(U) (.smallcircle., .circle-solid., .box-solid.) or poly(C) (.quadrature.).
(§2) Ribonuclease assays with recombinant 2-5A-dependent RNase are performed after immobilizing and purifying the translation product on the activating affinity matrix, 2-5A-cellulose. It was previously shown that murine L cell 2-5A-dependent RNase bound to 2-5A-cellulose, resulting in ribonuclease activity against poly(U) but not poly(c). […]
(§3) Briefly, lysates are adsorbed to about […] of 2-5A-cellulose on ice for about two hours. […] The matrix is then incubated with poly(U)-[^32 P]Cp or poly(C)-[^32 P]Cp (both at about 16 μM in nucleotide equivalents) at about 30° C. and the levels of acid-precipitable radioactive RNA are determined by filtration on glass-fiber filters.

poly(C) = assay: ribonuclease assay with 2-5A-cellulose, poly(C) substrate; format: biochemical; conditions: isolated on 2-5A-cellulose
Method: as §1, §2, §3

Row | Molecule | stimulatory effect on 2-5A-dependent RNase activity (2-5A-dependent RNase) | half-life of poly(U) degradation (poly(U); enzyme from reticulocyte lysate bound to 2-5A-cellulose, about 30° C.) | ribonuclease activity towards poly(U) (in words) (poly(U); isolated on 2-5A-cellulose) | ribonuclease activity against poly(C) (in words) (poly(C))
1 | Nc1ncnc2c1ncn2[C@@H]1O[C@H](COP(=O)(O)OP(=O)(O)OP(=O)(O)O)[C@@H](O)[C@H]1O [ATP] | two-fold |  |  | 
2 | B1 |  | about 10 minutes | potent ribonuclease activity | none
